Test results: US12338277 (ROCKEFELLER UNIVERSITY, dated 2025)
Changes are numbered by the printed parent chain. Read-outs that look alike come from different tables or passages of the source.

B1: 10-1074 (antibody, V domains shown)
VH: QVQLQESGPGLVKPSETLSVTCSVSGDSMNNYYWTWIRQSPGKGLEWIGYISDRESATYNPSLNSRVVISRDTSKNQLSLKLNSVTPADTAVYYCATARRGQRIYGVVSFGEFFYYYSMDVWGKGTTVTVSS
VL: SYVRPLSVALGETARISCGRQALGSRAVQWYQHRPGQAPILLIYNNQDRPSGIPERFSGTPDINFGTRATLTISGVEAGDEADYYCHMWDSRSGFSWSFGGATRLTVL
B2: 10-847 (antibody, V domains shown)
VH: B1 VH with E55A
VL: B1 VL with R15S
B3: 10-1074GM (antibody, V domains shown)
VH: B1 VH with Y32S, D53K, R54S, T58N, R100H, Y115T
VL: B1 VL
notes: also called 10-1074 glycomutant
B4: 10-1341 (antibody, V domains shown)
VH: B1 VH with K75T, K124R
VL: B1 VL
B5: 10-410 (antibody, V domains shown)
VH: QVQLQESGPGLVKPPETLSLTCSVSGASVNDAYWSWIRQSPGKRPEWVGYVHHSGDTNYNPSLKRRVTFSLDTAKNEVSLKLVALTAADSAVYFCARALHGKRIYGIVALGELFTYFYMDVWGKGTTVTVSS
VL: SFVSVAPGQTARITCGEESLGSRSVIWYQQRPGQAPSLIIYNNNDRPSGIPERFSGSPGSTFGTTATLTITSVEAGDEADYYCHIWDSRRPTNWVFGEGTTLTVL

Experiments:
YU-2 gp120 [1] = biological target: T1, YU-2 gp120 (HIV-1 (strain YU-2), UniProt P35961 32-498); experiment: SPR, IgG over immobilised YU-2 gp120, 1:1 fit, apparent constant
T1 construct: domain: gp120; also called gp120WT; intact YU-2 gp120

YU-2 gp120 [2] = biological target: T1, YU-2 gp120; experiment: ELISA, coated antigen, OD405 vs [IgG] (M)
YU-2 gp120 [3] = biological target: T1, YU-2 gp120; experiment: ELISA, coated antigen, OD405 vs [IgG] (M); remark: listed apart in the source
gp120NNT301-303AAA = experiment: ELISA, coated antigen, OD405 vs [IgG] (M)
YU-2 gp120 [4] = biological target: T1, YU-2 gp120; experiment: ELISA, coated antigen, OD405 vs [IgG] (M); remark: listed apart in the source
YU-2 gp120 [5] = biological target: T1, YU-2 gp120; experiment: ELISA, coated antigen, OD405 vs [IgG] (M); remark: listed apart in the source
YU-2 gp120 [6] = biological target: T1, YU-2 gp120; experiment: ELISA, coated antigen, OD405 vs [IgG] (M); remark: listed apart in the source
gp120GD324-5AA = experiment: ELISA, coated antigen, OD405 vs [IgG] (M)
YU-2 gp120 [7] = biological target: T1, YU-2 gp120; experiment: ELISA, coated antigen, OD405 vs [IgG] (M); remark: listed apart in the source
YU-2 gp120 [8] = biological target: T1, YU-2 gp120; experiment: SPR, apparent KD on gp120, bar graph
[9] = biological target: HIV-1 62357_14_D3_4589 envelope on pseudovirus (HIV-1 (strain 62357_14_D3_4589)); experiment: cell-based or functional assay
[10] = biological target: HIV-1 CNE19 envelope on pseudovirus (HIV-1 (strain CNE19)); experiment: cell-based or functional assay

| Binder | Ka (YU-2 gp120 [1]) [M⁻¹] | Kd (YU-2 gp120 [1]) [pM] | koff (YU-2 gp120 [1]) [s⁻¹] | EC50 (read off the curve) (YU-2 gp120 [2]) [pM] | EC50 (read off the curve) (YU-2 gp120 [3]) [pM] | EC50 (read off the curve) (gp120NNT301-303AAA) [pM] | EC50 (read off the curve) (YU-2 gp120 [4]) [pM] | EC50 (read off the curve) (YU-2 gp120 [5]) [pM] | EC50 (read off the curve) (YU-2 gp120 [6]) [pM] | binding result (gp120GD324-5AA) | EC50 (read off the curve) (YU-2 gp120 [7]) [pM] | fold difference of KD, wildtype vs glycomutant (YU-2 gp120 [8]) [fold] | IC50, TZM-bl neutralization [9] [µg/mL] | IC50, TZM-bl neutralization [10] [µg/mL] | binding result (gp120NNT301-303AAA) |
| --- | --- | --- | --- | --- | --- | --- | --- | --- | --- | --- | --- | --- | --- | --- | --- |
| B1 | 1.1e+08 | 9500 | 0.00019 | ~700 | ~100 | ~100 | ~500 | ~500 | ~300 | binds | ~300 |  |  |  |  |
| B2 | 1.1e+08 | 8900 | 0.00018 | ~400 | ~100 | ~100 | ~300 | ~300 | ~200 | binds | ~300 |  |  |  |  |
| B3 |  |  |  |  |  |  |  |  |  |  |  | 1.8 | 40.8 | 0.19 |  |
| B4 | 1.2e+08 | 8200 | 0.00016 | ~600 | ~90 | ~90 | ~500 | ~200 | ~400 | binds | ~500 |  |  |  |  |
| B5 | 2.1e+07 | 47000 | 0.0017 |  |  |  |  |  |  | binds |  |  |  |  | binds |
